Tests used:
Experiment in all cases: filter binding
Details in all cases: Filter binding: 20 mM HEPES-KOH pH 7.5, 1 mM MgCl2, 10 µM TCEP, 5 mM β-mercaptoethanol, 10 µM ZnCl2, 50-500 mM NaCl, 0.2 nM RNA, 25 min, room temperature. …
[1] = test system: HIV-2 MA (HIV-2 isolate ROD)
[2] = test system: HIV-2 GagΔp6 (HIV-2 isolate ROD)
[3] = test system: HIV-2 NC (NCp8) (HIV-2 isolate ROD)

HIV-2 TARpA RNA
Kd [1]: 2380 nM
Kd [2]: 965 nM
Kd [3]: 1430 nM

HIV-2 Ψ RNA
Kd [1]: 1510 nM
Kd [2]: 125 nM
Kd [3]: 979 nM

HIV-2 PBS RNA
Kd [1]: 2070 nM
Kd [2]: 314 nM
Kd [3]: 2040 nM

— paper PMC4794849
